Results from patent publication US20250326825A1, “ANTI-FABP4 ANTIBODIES AND THEIR USES” (THE HONG KONG POLYTECHNIC UNIVERSITY, priority 2024, published 2025).
Each block holds one molecule with its values, some of them ahead of it.

How the values were obtained:
[1] = tested on: hepatocellular carcinoma cells; assay: Sphere formation / limiting dilution sphere analysis (self-renewal); format: cell-based, human
Method: Sphere formation assay—Three to five hundred cells of PLC/PRF/5, Huh7 and hepatocellular carcinoma organoids (HK-HCC P1 and HCC #23) were seeded to 24-well plates coated with poly (2-hydroxyethyl methacrylate) (polyHEMA, Sigma Aldrich). Cells were grown in 500 μl of either conditioned media or serum-free 0.25% methylcellulose (Sigma-Aldrich) DMEM/F12 medium supplemented with 4 μg/mL insulin (Sigma-Aldrich), B27 (Invitrogen) and recombinant human FABP4 (rhFABP4, Biovision) at a concentration of either 20 ng/ml or 100 ng/ml. The number of tumourspheres (diameter larger than 100 μm) was counted under microscope after 8 to 12 days.
Limiting dilution assay—Parental or shITGB1 PLC/PRF/5 and Huh7 cells were cultured in a 96-well plate coated with polyHEMA with 200 μl serum-free 0.25% methylcellulose DMEM/F12 medium supplemented with 4 μg/mL insulin, B27 and rhFABP4 when appropriate. Sphere formation was scored after 8 to 12 days under a phase contrast microscope. The frequency of sphere-forming cell was calculated accordingly using an extreme limiting dilution algorithm (ELDA).

[2] = tested on: hepatocellular carcinoma cells; assay: Cancer stem cell functional assays (overall); format: cell-based, human; settings: hepatocellular carcinoma cells in ADCM (FIG. 9A to 9D)
Method: In summary, the methods shown herein were used to evaluate the interaction between differentiated adipocytes and HCC cells using a co-culture system. The conditioned medium of the adipocytes was profiled using Orbitrap liquid chromatography mass spectrometry. The functional role of FABP4 in the regulation of liver cancer stem cells was evaluated by various cancer stem cells functional assays. In vivo functional characterization of FABP4 was performed in Fabp4 knockout mice. Molecular pathways mediating phenotypic alterations were identified using mass spectrometry, RNA sequencing analysis, and pathway analysis. The therapeutic efficacy of monoclonal neutralising antibody against FABP4 was evaluated in two mouse models, a hepatocellular carcinoma (HCC) xenograft model and a MASLD-HCC model.

[3] = limits clinical use; cited from earlier work
PLC/PRF/5 cells = assay: In vivo tumorigenicity assay (limiting dilution), subcutaneous engraftment of pretreated PLC/PRF/5 cells; set-up: species or system mouse (mouse (mouse (human cell xenograft) cell xenograft) cell xenograft); settings: PLC/PRF/5 pretreated with rhFABP4 at 100 ng/ml, NOD/SCID mice
Method: (§1) In vivo tumorigenicity assay—In vivo evaluation of tumorigenicity was performed with either male non-obese diabetic/severe combined immunodeficient (NOD/SCID) or NOD/SCID gamma mice, 4 to 6 weeks of age, by induction of tumour xenografts. Cells were suspended in 1:1 culture medium and BD Matrigel Matrix (BD Biosciences) and subcutaneously injected into the flanks of the mice, which were kept under observation. Briefly, each mouse received two injections of cells in both flanks. The cells were pretreated with either rhFABP4 (100 ng/ml) or ADCM for 24 hours, and, with their control group, were injected into NOD/SCID and NOD/SCID gamma mice, respectively. Tumours were harvested at the end of the experiment for documentation. Tumour-initiating cell frequency was calculated using Extreme Limiting Dilution Analysis (ELDA) software. No specific randomization method was used. Sample size of animals was chosen based on p-values. […] Mice were sacrificed if the percentage of body weight loss is greater than 20% including the tumour mass.

Huh7 cells = assay: In vivo tumorigenicity assay (limiting dilution), subcutaneous engraftment of pretreated Huh7 cells; set-up: species or system mouse xenograft; settings: Huh7 pretreated with rhFABP4 at 100 ng/ml, NOD/SCID mice
Method: as §1

[4] = tested on: hepatocellular carcinoma cells; assay: Migration and invasion transwell assays; format: cell-based, human; settings: rhFABP4 (FIG. 2G)
Method: Migration and invasion assays—Migration assays were performed using polycarbonate membrane transwell inserts with pore size of 8 μm (Millipore). Invasion assays were performed using self-coated Matrigel (BD Biosciences) transwell inserts. Hepatocellular carcinoma cell lines (PLC/PRF/5 and Huh7) or patient-derived organoids (HK-HCC P1 and HCC #23) in serum-free medium were seeded in upper chamber, while the lower chamber was supplemented with either ADCM or 100 ng/mL rhFABP4 in serum-free medium as a chemoattractant. Serum-free DMEM was used as a negative control. Cells were incubated in humidified incubation at 37° C. for 48 hours. The transwell membranes were fixed with methanol and stained with 1% crystal violet. The membranes were cleaned and air-dried. Photographs of five randomly selected fields of the fixed cells were captured and the cells were counted using ImageJ.

[5] = tested on: hepatocellular carcinoma cells; assay: Annexin-V apoptosis assay (drug resistance to doxorubicin or sorafenib); format: cell-based, human; settings: rhFABP4 pretreatment (FIG. 2H)
Method: Annexin-V apoptosis assay—Cells were stained by FITC-conjugated Annexin-V (BioVision) and propidium iodide (PI) (Invitrogen) in Annexin-V binding buffer (BD Biosciences) at room temperature for 30 minutes. Apoptosis percentage was determined using BD Accuri C6 flow cytometer and FACSDiva software (BD Biosciences).

[6] = tested on: hepatocellular carcinoma cells; assay: Flow cytometric analysis of liver CSC markers; format: cell-based, human; settings: rhFABP4 20 ng/ml and 100 ng/ml (FIG. 2F)
Method: Flow cytometric analysis—Cells were stained by Phycoerythrin (PE)-conjugated CD47 and CD90 antibodies (#536046 & #555596, BD Biosciences) in PBS with 2% FBS at 4° C. for 30 to 60 minutes. Isotype-matched mouse immunoglobulins served as controls. Samples were analysed using BD Accuri C6 flow cytometer and FACSDiva software (BD Biosciences).

[7] = tested on: PI3K/AKT/β-catenin signalling; assay: Western blot of AKT/GSK3β/β-catenin signalling in hepatocellular carcinoma cells; format: cell-based, human; settings: ADCM or rhFABP4 treatment (FIG. 5D)
Text: Western blot analysis—Whole cell lysates were extracted using either NETN buffer supplemented with protease inhibitor cocktail or direct lysis. Protein lysate was separated by SDS-polyacrylamide gel electrophoresis (SDS-PAGE) and transferred to polyvinylidene difluoride membrane (Millipore) for western blot analyses. Primary antibodies FABP4[EPR3579](1:1000, ab92501, Abcam), pAKT(Ser473) (D9E), pGSK3β(Ser9) (D3A4), AKT and β-catenin (D10A8) (1:1000, #4060S, #9322S, #9272S & #8480S, Cell Signaling Technology), GSK3β(clone 7) (1:1000, #610202, clone 7, BD Transduction Laboratories), DDK (OTI4C5) (1:1000,TA50011-100, Origene), ITGB1 (1:1000, 12594-1-AP, Proteintech) and β-ACTIN (AC-74) (1:5000, #A5316, Sigma Aldrich) were incubated at 4° C. overnight. After washing, the membrane was incubated with horseradish peroxidase-conjugated anti-mouse or rabbit antibody (GE HealthCare). The signals were visualized using the enhanced chemiluminescence method. Blot images were quantified by densitometry using ImageJ software. The protein expression was normalized to β-actin and expressed as fold change relative to respective controls.

β-catenin = assay: Beta-catenin TCF binding luciferase (TOP/FOP) reporter assay; format: cell-based, human; settings: ADCM or rhFABP4 for 24 hours (FIG. 5E)
Text: Beta-catenin TCF binding luciferase reporter assay—β-catenin activity was examined using luciferase reporter assay of TCF/LEF-dependent transcription (TOP/FOPFLASH reporter assay). Either firefly luciferase pSuper8XTOPflash or pSuper8XFOPflash constructs (gifts from Dr. Moon R, University of Washington, USA), together with Renilla luciferase construct pRL-CMV (Promega, Madison, WI, USA) for normalization of transfection efficiency, were transfected using Lipofectamine 2000. Luciferase activities were assayed using Dual-Luciferase Reporter Assay System (Promega) according to manufacturer's protocol.

[8] = tested on: hepatocellular carcinoma patient-derived organoids (HK-HCC P1 and HCC #23); assay: Hepatocellular carcinoma patient-derived organoid assays; format: cell-based, human
Text: Hepatocellular carcinoma patient-derived organoids and culture conditions—Hepatocellular carcinoma tissue was obtained from patients undergoing hepatectomy at Queen Mary Hospital, Hong Kong. Samples were collected from patients who had not received any previous local or systemic treatment prior to operation. For organoid cultures, cells were isolated and cultured according to protocol. Hepatocellular carcinoma patient-derived organoids labelled HCC #23 was gift from Dr. Meritxell Huch of The Gudon Institute at the University of Cambridge.
Cell viability assay—Cell viability of organoid cultures treated with specified concentrations of rhFABP4 for 6 days was evaluated using CellTiter-Glo® Luminescent Cell Viability Assay (Promega) according to manufacturer's protocol.
Sphere formation assay—Three to five hundred cells of PLC/PRF/5, Huh7 and hepatocellular carcinoma organoids (HK-HCC P1 and HCC #23) were seeded to 24-well plates coated with poly (2-hydroxyethyl methacrylate) (polyHEMA, Sigma Aldrich). […] The number of tumourspheres (diameter larger than 100 μm) was counted under microscope after 8 to 12 days.
Migration and invasion assays—Migration assays were performed using polycarbonate membrane transwell inserts with pore size of 8 μm (Millipore). […] Photographs of five randomly selected fields of the fixed cells were captured and the cells were counted using ImageJ.

ITGB1 = biological target: T1, ITGB1 (Homo sapiens, UniProt P05556); assay: Mass spectrometry / coimmunoprecipitation of FABP4 binding partner; settings: biotin-labelled rhFABP4, Huh7 membrane surface
T1 construct: endogenous in cells; host or cells: Huh7
T1 sequence (P05556 21-798): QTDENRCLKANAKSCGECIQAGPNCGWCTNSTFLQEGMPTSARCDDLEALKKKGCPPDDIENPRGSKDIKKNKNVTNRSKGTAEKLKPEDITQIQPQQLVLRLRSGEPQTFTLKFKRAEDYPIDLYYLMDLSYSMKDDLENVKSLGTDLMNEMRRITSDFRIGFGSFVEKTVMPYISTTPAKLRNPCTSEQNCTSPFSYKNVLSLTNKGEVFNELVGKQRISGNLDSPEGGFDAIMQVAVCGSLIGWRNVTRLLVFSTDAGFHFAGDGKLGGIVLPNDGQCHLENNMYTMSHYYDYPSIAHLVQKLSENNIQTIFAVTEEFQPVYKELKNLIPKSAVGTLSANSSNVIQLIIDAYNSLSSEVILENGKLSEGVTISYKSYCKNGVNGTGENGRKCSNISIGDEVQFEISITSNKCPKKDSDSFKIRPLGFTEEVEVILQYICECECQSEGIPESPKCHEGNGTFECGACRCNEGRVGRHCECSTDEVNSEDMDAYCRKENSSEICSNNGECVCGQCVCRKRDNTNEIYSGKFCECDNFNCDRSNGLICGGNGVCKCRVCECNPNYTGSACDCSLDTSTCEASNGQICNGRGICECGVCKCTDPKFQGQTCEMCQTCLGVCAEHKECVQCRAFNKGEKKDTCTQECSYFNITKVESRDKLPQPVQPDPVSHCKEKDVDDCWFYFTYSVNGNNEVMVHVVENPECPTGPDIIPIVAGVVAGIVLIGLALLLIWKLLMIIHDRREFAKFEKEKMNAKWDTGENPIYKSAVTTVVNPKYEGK
Method: Biotinylation of rhFABP4 and Streptavidin capturing of membrane protein—rhFABP4 was biotin-labelled and crosslinked with sulfosuccinimidyl-2-[6-(biotinamido)-2-(p-azidobenzamido) hyxanoamido]ethyl-1,3′-ithiopropionate) (Sulfo-SBED, A39260, Thermo Fisher Scientific) according to manufacturer's instructions. In brief, 50 μg of rhFABP4 (#4504, BioVision) was incubated with 1 mg of dissolved Sulfo-SBED at room temperature for 30 minutes. The reaction mixture was desalted using Amicon® Ultra-0.5 centrifugal filter device with a 3,000 Molecular Weight Cut Off (Millipore, Germany). The desalted biotinylated rhFABP4 was incubated in PBS with adherent Huh7 cells at room temperature for 10 minutes. The cell surface proteins interacting with biotinylated rhFAPB4 was captured by the photoreactive aryl azide moiety using long wave-UV at 360 nm. The labelled proteins were isolated by NeutrAvidin Agarose slurry and reduced using Pierce™ Cell Surface Protein Biotinylation and Isolation Kit (#A44390, Thermo Fisher Scientific). The interacting rhFABP4-surface protein complex was isolated, and the disulfide bond reduced, resulting in the biotin label being transferred to the interacting proteins. […]

Molecule: CCc1c(-c2ccccc2)c(-c2ccccc2)nn1-c1ccccc1-c1cccc(OCC(=O)O)c1 [BMS-309403]
- Enhancing self-renewal ability of ADCM (tumoursphere formation) ([1]; PLC/PRF/5, ADCM, inhibitor at 1 μM): suppressed
- Effects of ADCM on liver cancer stem cell properties [2]: attenuation
- Side effects [3]: acute cardiac depressant effect

- Transactivation of β-catenin (TOP/FOP reporter) (β-catenin): enhanced
- Interaction with membrane receptor ITGB1 (ITGB1): directly interacts
B1: rhFABP4: recombinant human FABP4 protein (Biovision) (protein, UniProt P15090 2-132, looked up)
Fatty acid-binding protein, …: CDAFVGTWKLVSSENFDDYMKEVGVGFATRKVAGMAKPNMIISVNGDVITIKSESTFKNTEISFILGQEFDEVTADDRKVKSTITLDGGVLVHVQKWDGKSTTIKRKREDDKLVVECVMKGVTSTRVYERA
- Estimated CSC frequency (PLC/PRF/5 cells; extreme limiting dilution): 1/2108
- Tumor incidence rate, 1 × 10^3 cells (PLC/PRF/5 cells; subcutaneous, 1 × 10^3 cells): 3/5
- Tumor incidence rate, 5 × 10^3 cells (PLC/PRF/5 cells; subcutaneous, 5 × 10^3 cells): 4/5
- Estimated CSC frequency (Huh7 cells; extreme limiting dilution): 1/3404
- Tumor incidence rate, 1 × 10^3 cells (Huh7 cells; subcutaneous, 1 × 10^3 cells): 3/5
- Tumor incidence rate, 1 × 10^4 cells (Huh7 cells; subcutaneous, 1 × 10^4 cells): 4/5
- Tumor incidence rate, 5 × 10^3 cells (Huh7 cells; subcutaneous, 5 × 10^3 cells): 4/5
- Self-renewal (sphere formation) ([1]; rhFABP4 20 ng/ml and 100 ng/ml (FIG. 2D)): promote
- Cell migration and invasion [4]: promote
- Resistance to doxorubicin and sorafenib treatment [5]: promote
- Expression of liver CSC markers [6]: promote
- AKT phosphorylation at Ser473 [7]: activated
- GSK3β phosphorylation at Ser9 [7]: inactivation
- Total β-catenin [7]: accumulation
- Self-renewal of patient-derived organoids ([8]; rhFABP4 (FIG. 4B)): confer self-renewal
- Size of organoids and their proliferative rate ([8]; rhFABP4, 6 days, CellTiter-Glo (FIG. 4C)): increase
